In patent publication US20260234242A1 (HAINAN SIMCERE ZAIMING PHARMACEUTICAL, published 2026):

T1: human CDH6 with EC1 removed, on HEK293T cells (HEK293T-hCDH6-EC1 deletion) (human, UniProt P55285 160-790)
T1 construct: Signal peptide not removed here
T1 sequence: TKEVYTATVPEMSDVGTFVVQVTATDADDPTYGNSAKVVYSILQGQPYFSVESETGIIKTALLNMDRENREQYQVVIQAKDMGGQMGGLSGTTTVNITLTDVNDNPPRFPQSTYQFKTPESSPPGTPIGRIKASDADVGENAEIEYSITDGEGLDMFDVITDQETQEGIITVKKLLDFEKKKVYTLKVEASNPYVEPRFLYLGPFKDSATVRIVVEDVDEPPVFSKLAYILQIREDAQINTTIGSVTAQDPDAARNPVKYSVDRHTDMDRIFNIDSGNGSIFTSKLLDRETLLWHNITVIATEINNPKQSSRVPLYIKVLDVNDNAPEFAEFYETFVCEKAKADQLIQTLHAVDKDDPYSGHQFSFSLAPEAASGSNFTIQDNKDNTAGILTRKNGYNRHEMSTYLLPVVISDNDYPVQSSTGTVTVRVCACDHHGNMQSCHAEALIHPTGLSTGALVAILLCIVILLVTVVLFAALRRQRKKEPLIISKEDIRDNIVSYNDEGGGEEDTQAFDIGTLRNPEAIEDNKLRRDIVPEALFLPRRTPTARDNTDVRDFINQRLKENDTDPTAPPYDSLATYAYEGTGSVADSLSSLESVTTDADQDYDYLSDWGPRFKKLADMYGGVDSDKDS

T2: his-tagged human CDH6 extracellular region protein (hCDH6 ECD-his) (human, UniProt P55285 19-615)
T2 construct: also called Human CDH6-his; hCDH6-his; not shown: his tag
T2 sequence: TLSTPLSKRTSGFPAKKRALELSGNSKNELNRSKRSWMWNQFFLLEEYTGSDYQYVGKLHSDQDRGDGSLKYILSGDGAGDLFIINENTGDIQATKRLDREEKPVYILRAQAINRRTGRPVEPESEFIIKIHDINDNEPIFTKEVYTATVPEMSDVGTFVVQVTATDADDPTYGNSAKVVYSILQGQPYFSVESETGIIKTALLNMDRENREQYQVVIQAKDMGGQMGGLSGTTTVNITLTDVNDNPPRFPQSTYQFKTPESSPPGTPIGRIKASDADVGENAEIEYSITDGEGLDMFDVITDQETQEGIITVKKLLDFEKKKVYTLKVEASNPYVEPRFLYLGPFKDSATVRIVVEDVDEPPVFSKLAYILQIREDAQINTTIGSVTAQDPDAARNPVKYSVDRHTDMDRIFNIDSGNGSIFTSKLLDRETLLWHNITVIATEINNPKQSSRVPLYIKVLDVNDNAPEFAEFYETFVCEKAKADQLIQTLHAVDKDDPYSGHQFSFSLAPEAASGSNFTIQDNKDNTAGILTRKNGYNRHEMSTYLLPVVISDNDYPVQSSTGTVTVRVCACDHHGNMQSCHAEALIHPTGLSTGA

T3: human CDH6 with EC2 removed, on HEK293T cells (HEK293T-hCDH6-EC2 deletion) (human, UniProt P55285 54-790)
T3 construct: Signal peptide not removed here
T3 sequence: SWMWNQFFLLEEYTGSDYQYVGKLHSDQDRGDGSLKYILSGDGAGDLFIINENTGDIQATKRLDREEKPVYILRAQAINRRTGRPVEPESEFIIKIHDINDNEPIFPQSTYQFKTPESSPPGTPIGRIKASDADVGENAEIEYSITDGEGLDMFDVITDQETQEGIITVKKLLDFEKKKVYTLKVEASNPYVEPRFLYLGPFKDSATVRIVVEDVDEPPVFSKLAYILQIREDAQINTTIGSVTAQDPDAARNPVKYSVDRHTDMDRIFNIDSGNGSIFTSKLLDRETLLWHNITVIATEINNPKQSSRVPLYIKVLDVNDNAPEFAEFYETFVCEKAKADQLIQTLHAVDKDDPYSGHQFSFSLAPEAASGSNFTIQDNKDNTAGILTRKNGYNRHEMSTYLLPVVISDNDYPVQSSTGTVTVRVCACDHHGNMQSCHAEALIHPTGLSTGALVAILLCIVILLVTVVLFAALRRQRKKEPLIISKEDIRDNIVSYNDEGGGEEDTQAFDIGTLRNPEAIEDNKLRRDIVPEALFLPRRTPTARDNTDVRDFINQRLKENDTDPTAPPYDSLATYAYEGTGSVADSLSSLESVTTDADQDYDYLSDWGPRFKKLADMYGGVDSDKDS


Columns and labels:
[1] = target: T1, human CDH6 with EC1 removed, on HEK293T …; experiment: FACS, HEK293T-hCDH6-EC1 deletion cells
[2] = target: T2, his-tagged human CDH6 extracellular …; experiment: ELISA, coated antigen; ELISA, coated hCDH6 ECD-his; plateau signal
Description: (§1) Human CDH6 protein (hCDH6 ECD-his, conventionally synthesized), monkey CDH6 protein (cynoCDH6 ECD-his, conventionally synthesized; the cynoCDH6 ECD sequence was derived from Uniprot #A0A2K5TW62 (19-615)), and murine CDH6 protein (mCDH6 ECD-his, conventionally synthesized; the mCDH6 ECD sequence was derived from Uniprot #P97326 (19-615)) were diluted with PBS to a final concentration of 1 μg/mL, and added to a 96-well ELISA plate at 100 μL/well. The plate was incubated at 4° C. overnight. The next day, the plate was washed 3 times with a plate washing solution (PBS+0.01% (v/v) Tween 20), and a blocking buffer (PBS+0.01% (v/v) Tween 20+2% (w/w) BSA) was added for blocking at room temperature for 2 h. The blocking buffer was discarded, and the plate was washed 3 times. The chimeric antibodies were diluted with 1% BSA+PBS (purchased from Cytiva, Cat. No. SH30264.01) and added to the 96-well plate at 50 μL/well. After incubation at 37° C. for 2 h, the plate was washed 3 times with a plate washing solution. […] The plate was incubated at 37° C. for 1 h and then washed 5 times with a plate washing solution. A TMB substrate (purchased from Seracare, Cat. No. 5120-0077) was added at 50 μL/well and incubated at room temperature for 10 min, then a stop solution (1.0 N HCl) was added at 50 μL/well. OD450 nm values were read using a microplate reader (Biotek). Analysis was performed by the GraphPad Prism software, data were fitted, and EC50 values were calculated. The chimeric antibodies tested all had strong binding to the human CDH6 protein, the monkey CDH6 protein, and the murine CDH6 protein.

[3] = target: T2, his-tagged human CDH6 extracellular …; experiment: ELISA, coated antigen; ELISA, hCDH6 ECD-his coated at 1 µg/mL, antibody in solution
Description: as §1

[4] = target: T3, human CDH6 with EC2 removed, on HEK293T …; experiment: FACS, HEK293T-hCDH6-EC2 deletion cells

Binder	Max MFI [1]	Max OD450 [2]	EC50 [3]	Max MFI [4]
DS-H01L02 (antibody, human IgG1, kappa, V domains shown, Positive control, variable regions from WO2018212136A1; also called positive control anti-human CDH6 antibody) VH: EVQLVQSGAEVKKPGASVKVSCKASGYTFTRNFMHWVRQAPGQGLEWMGWIYPGDGETEYAQKFQGRVTITADTSTSTAYMELSSLRSEDTAVYYCARGVYGGFAGGYFDFWGQGTLVTVSS VL: DIQMTQSPSSLSASVGDRVTITCKASQNIYKNLAWYQQKPGKAPKLLIYDANTLQTGVPSRFSGSGSGSDFTLTISSLQPEDFATYFCQQYYSGWAFGQGTKVEIKR	5290 MFI	1.89 OD450	0.168 nM	8390 MFI
CHI-CDH6-7 (antibody, human IgG1, kappa, V domains shown, also called CH1-CDH6-7; chimeric antibody of murine CDH6-7) VH: EVKLVESGGGLVKPGGSLKVSCAASGFTFSDHGMAWVRQAPGKGPEWVAFISNLAYSIYYADTVTGRFTISRENAKNTLYLEMSSLRSEDTAMYYCARVYVKWYFDVWGAGTTVTVSS VL: DIQMTQSPASLSASVGETVTITCRASENIDSYLAWYQQKQGKSPQLLVFAATLLADGVPSRFSGSGSGTQYSLKINSLQSEDVARYYCQHYYSTPLTFGAGTKLELKR	88 MFI	1.78 OD450	0.488 nM	13000 MFI
CHI-CDH6-12 (antibody, human IgG1, kappa, V domains shown, also called CH1-CDH6-12; chimeric antibody of murine CDH6-12) VH: EVNLVESGGGLVQPGDSLTLSCSASGFTFTDYYMSWVRQFPGKALEWLALIRNKANSYTTEYSASVKGRFTISRDNSQSILYLQMNALRAEDSATYYCARDSYYSHDGFAYWGQGTLVTVSA VL: DIVLTQSPASLAVSLGQRATISCRASKSVSTSSYTYMHWYQQKPGQPPKLLIKFASYLESGVPARFSGSGSGTDFTLNIHPVEEEDAATYYCQHSREFPFTFGTGTKLEIKR	9860 MFI	1.82 OD450	0.105 nM	11000 MFI

Stronger by EC50 [3], values ahead:

Max MFI [1]	Max OD450 [2]	EC50 [3]	Max MFI [4]	Binder
10200 MFI	2.14 OD450	0.053 nM	75 MFI	CHI-CDH6-4 (antibody, human IgG1, kappa, V domains shown, also called CH1-CDH6-4; chimeric antibody of murine CDH6-4) VH: QVQLQQSGPELVKPGASVKISCKASGYAFSNFWMNWVKQRPGKGLEWIGWIYPGDGDTNYNGKFKDKATLTADKSSSTAYIQLSSLTSEDSAVYFCARLYDAWGFFDYWGQGTTLTVSS VL: QIVLTQSPAIMSASPGQKVTITCSASSSVNYMHWYQQKLGSSPKLWIYDKSKLAPGVPARFSGSGSGTSYSLTISSMEAEDAASYFCHQWSSYPPMTFGGGTKLEIKR
112 MFI	1.79 OD450	0.043 nM	343 MFI	CHI-CDH6-5 (antibody, human IgG1, kappa, V domains shown, also called CH1-CDH6-5; chimeric antibody of murine CDH6-5) VH: QVQLQQSGAELVRPGTSVKMSCKAAEYTFTNYWIGWVKQRPGHGLEWIGDLYPGGDHANYNEKFEGKATLTADTSSSTAYMQLSSLTSEDSAIYYCARGMLTTGFDSWGQGTTLTVSS VL: DIVMSQSPSSLAVSAGEKVTMSCKSSQSLFNSRTRKNYLAWYQQKPGQSPKLLIYWASTRESGVPDRFTGSGSGTDFTLTISSVQAEDLAVYYCKQSYYLRTFGGGTKLEIKR
